The data set can be described thus: protease stability score; higher = more stable; yeast display proteolysis, trypsin and chymotrypsin.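 Note: relative to predicted unfolded state with 0 unfolded-like and 1 meaning tenfold more protease.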
As to “DEEEKHVRKMVEIESHSHQTGDFDSIRELADPHMRIDINGVELHGWKEFERFLREIRVHHIKIKSVRDINGVAVVDTIVHGHIDGRTDTFDAHVVILKINGQWRIKSIKIE”, the protease stability score turned out to be 0.918.

Sequence “TDVEEQVHVAIELHLRTLLTGDEHLSEKLADPHVRILIDGQDYHGRTEWVKWIHTFHKRVDHHQIDVTTLSVQGDKIRIHFELKLHVNGVDLRFHILLIIEKYNGVWIMSEVHIS” came in with a protease stability score of 1.67.

As for “DELEHLANEWMKRVIHHLETGDEESWMKYADPNVRTEINIGDKTEERHGRERYIDFIRRLGFDHVHIHDQRIHHVNGVLFIHLNIKIKQGDYLFTSELDIIVRKIDGQWFVRSINIKVD”, the protease stability score came to 0.601. The figure for “DEDEEEALDFMRLLVESLQTGDEELISRMADPNVLLIVNGVEHVGREFYVKWVKHLVERVDHMEIRLKRIEIYDGRAHLDTEVIFRFNGRELRKKTHLIIEKVDGRWILKSVIVE” is 2.35.

As for “SKDEEDAEEFFEKWLRYSRTGDEKSMEELMDPNTKIDFNGKEIHGREEVLRFLIELRVHHIEIKRISSINGKLHIDGRFDIIYGDKRIDTRTVLEIDKINGRWHLHTVRFV”, the protease stability score came out at 2.12. With “DDTRELSKHWHERWLHAHETGDEELLLSLLDPHVRLEVGDKHLIGRDKLKWHMEEEIEFFKNAKLHVRRVSIQGNKIEMELEVRIDGVRHEVHIHYDIIDGRITRFEVRIV” the figure was 0.21; with “DEDREMLEELTRRLAHSVETGDEDHHSHLADPNTRETIHINGRTFEHHGWEIWSELLTRLGADHMHLDRVHVVNGRVEIRSRVHVGDKEYKVHILMVVINGRLKEVSVHIH”, 0.721; with “HEKEKLEKDIWRLLVEWLETGNEHEFEKFMDPDARLFEDVDGKELRIHGREIAMEILHHLWRDFGVDHLVLKKASIIDGVVHLDVILDVNGRRIDTRIIFVIINGRIHSTHIHIR”, 1.52. For “HEREHLLERMLKLLLELLLTGDEDTWKHYLDPHTRVIFNGREEHGRTAFERFVKELGVDHIEFKHVEIRHIGDKVHLHVDARVEINGRKHNMHLHIHLRKIDGQWEVKEFRIEIE”, the protease stability score turned out to be 1.27.

With “SSEEEDIEWATEVLVMSFITGDWKLSHKLMDPNVLSIVNGREFHGRELAVKHLHEMTEKIKGLRIETHDLKHINIFNGRARVHSIVRGDINGRKVDSMIDVITNKFDGRWVIESVQFI”, the protease stability score came to 1.45. The figure for “EEHYEDMHHAMELFIHAVRTGDEHTLSRMLDPNTRIRIDGVHLIGREQAVKWWLELYKKFPNMRLNLKRIDIFDGKLHVDLETNINGVRLDSHLLISKVDGQWRVDSIQHE” is 1.5; for “SEDEELAQTFLELWVHFLRTGDESMLEQYIDPHARFKVGDKEDHGMKVFKDLLHHIRIEDFRVHHVEIRIVGEWIEIRMDITLHGRVDGVRDTKRVHVHINAEKYNGRWRIKELEIRHR” it is 1.74; for “SEDEFDARLVYKLVLDLLLTGDPDTWRKLFDPNVKINIDGVDYHGMKEFERIVKEIRVIIHDSELHDVETQGDKIIYHGIIDGTYHVNGRTIRERRTFTIIAHKVDGRWILHSISYE” it is 1.22. The figure for “DEEQQDLIEVVNRYLRAVLTGDEDDLRELLDPHYRIRIGDKEFVGWKEFIRHVREARYTIHRWSVDSVEIIGDKVILYGELDGIEKVNGKTIKKRFEVIFYINKIDGRWHFKHIEFH” is 2.29; for “DELHNLLEHALKIVIELWRTGDWRLIDKMLDPNTLLNFNGKNIHGREEIDRLRKELGIEFFAIEDQDYRRMHIQGDKIELDGDSDIIINGQRRRTHVHLHLEKINGRWVDRRIIFL” it is 0.913; for “HEIHELLKRVVDMLRTLWETGDEETWNSLADPNTKFVIGDKEVVGMEEITRIFLHERERADHMKFEVRRIRTVGDKADSHGHLRLDIGNKHVTHEIDLHVRVINGRIKQVELRIH” it is 1.33. With “DDEKRFTHEAIKTSEEVMKTGDERLMRELMDPNVRSEIDGRDVHGMDIITEWLSHIRIEDIKLRRITVIDGVITIRGEVYFEQGDKIVTFDVTIIYEKIDGRWLLRSLHVK” the figure was 1.53. Consider “DEDSELAQIYNDLWRHTMETGDEHLSRRLLDPEVRLIINGREFIGWSLAIEVEHRLFKRFDHVHIDLEHITIQGDKIHTNSTLHIHFNGVTFEHRIHISIKKVNGRWINHTQRIQ”, for which the protease stability score is 0.801.

For the sequence “SEDEEIFRIALHILIYTMKTGDEKMLEENFDPNTKIRVGDKEFVGREELRHWFEHLRPKDFKLRDISTQGEKIRIIGHSIGEVDGREVRYDVEMDLHKVDGRWRMTHERIH”, the protease stability score came to 1.16. Sequence “HEELELRRRVLENWTKNMITGNEEETKKLADPNVRIDIDGVELHGMDIWYEYMRHIRIKIQHIERKDVKDYDGKVEVDADSHVEMEVNGKLTSTRRKLIFIHLKVDGRWVIHSISFH” registered a protease stability score of 0.823.

For the sequence “SEHEEHVRSAIERLSHAWRTGNEELFKELVDPHTRFIYGNKNMHGWEISEFFRRRVKGMTLHEVDIHHVEVINGRVHVNSILRGEINGKDTFEDHELHARKVDGRWVVTEMTIR”, the protease stability score came to 0.732. In turn, “DEERKRSEELMKLEIHVFETGDWEWYREMADPNTRMHIDGKDFHGREEIYKFLHEHHLRFKNIKIHFEHIELQGEYVHNDVIIHVNGVDLIAHIIIVVVNGRVTHSEFQLE” displayed a protease stability score of 1.17. Sequence “REKDDEMDRIVKIFYHVLRTGNEELLDTLIDPDTRIEVDINGVNYISHGREEWKRVIEELLRHMRINSIIIHDIRYQGNKATIDNHADLEFDGVRFEMRSELRIIVVNGRYRSFSRIIR” returned a protease stability score of 1.13. The figure for “SEDEKEMKQALEHWLELLTTGNEEENEKLADPDVRLNFNGKEFHGWKLYREFLSRIKNATIRIREVRVVNGKVTVISELRIGDKVFEVQIHLKKVNGKWYVEEEHIH” is 1.61; for “DEQEKHLKKISEDLLRIWLTGDEDTFREMADPDMRFIDEDHELHGREELIRMMREFWHKFKNARIEIHHVEVIGEYNNVDIRLSVDGRVVDVKLHFLIVNGRLKKVEVRER” it is 2.07; for “SEDEEASKEMLERLIESIKTGDWRHDSNMVDPHARFRVGDKEFHGRDDLEHLVKHLGIKHVEVQHVRTYGNKMELHGWERFNGREVRVELHFVKIDGQWVLTEYRVR” it is 0.616.

For the sequence “NEEKELWHKDIEDLQRDWKTGDEDSVREQLDPDVRLDINGVEIIGMEEATRFIIELMREIRIHVNLERIIIQGDKIILHGNLVVEQGDKHHITRQTIDARKVDGRWFEHKVRVE”, the protease stability score is -0.033.

In the case of “SEEEKAIIDLFKLWIHAFVTGDEEKLSELMDPRVRLTVGDKHLHGMEIVVEWYRRLRDKIKNLQFRSFEIEDFRIVNGRVELEAVIHIHFNGQMRTIEVRFILEKVDGRWFLKSVEEK”, the protease stability score came out at 2.57.

For the sequence “DESEKMFKEIWRLLIESHRTGDEDSLERLADPHARMDFNGVEHHGRRELVRILSEHYKRVDHIHLIIRDMDVQGNKVTMRGELVLEFNGRRQTHDVTIILSKVDGVWYLHSIIVR”, the protease stability score amounted to 1.53. Sequence “DEDHKQSKHAFELFMHLLRTGDEEVLRRMADPNARIVVNGKDDIGREVFLRVLLEFGVDHMQIRDWELDENHIILVSELRIGEKTHTLDVHFKKINGRWIVEVNNLE” yielded a protease stability score of 1.25. Turning to “DESEERSRHATELFIRAIHTGDEHTLMNLLDPHVRTHYGDKEVHGRENVVKVMLELLHKLGADHVRWEYHDFKDINGRLHMDWRLHVVVGDKELTLQTHIITEKINGRWHSKYMEIR”, the protease stability score was 0.183. Turning to “SEKEEDLRRAEQDFLREMETGDEHLTSELADPHVRIDIGDKVYHGREFWSKFVRRVKNATIQITHRQYQGDKLWLDGILNVDGRNIRMLVIIHKIDGVWVFKYVDIH”, the protease stability score amounted to 2.27.

Turning to “SEEHEEVHKVIEMLVRHARTGDEDYLRNQFDPNARVRFNGKDRHGRESLDEMLKQFDVIKEVRIKRIDVQGEKIHADIEIRGRYNGQEINTESHIVFKKINGQWIIEEVEFK”, the protease stability score was determined as 1.6. The figure for “DEDTEKVRWFFEVLKRASDTGNEEEELKLLDPNARYIFNGKNDHGRRAWERFKKNLGVKHVEIHPRDFDVVDGRIHIEIELRIHVDGREIRFDIEIIVEKFNGRWYLRSIHID” is 0.376; for “DEIEKVLEISYRLMHESWRTGDEDHLRDLIDPHARVIIDGRTYHGRDAMHLFVDELLREFGITQVDIEMKRIHVQGDKVESHHDINFNGQRVEVDISFHKVNGRWIAESVTWR” it is 1.24; for “DDNEETVERTFKYFIDSLRTGNEEDMYEMADPNVKIEIGDKRLHGREKFRDHMHELSRRADHIQVHLRIHDIQGEFLHLDVELILDVNGKELRIKVHFVAFKFNGRWRLRSMRQT” it is 1.04. For “DDKHELSHKFVRLIMHLIDTGDEDDIHRLLDPHAKLHVGDKRFVGREDIAHFWKKHLDDLGADYRHTRLKHIDLIGEKVIVHTEIDLTVGEYRVTIDSTFVVEKINGRWLSREFRWN”, the protease stability score turned out to be 0.88. With “DEDEKERKRDLDKLRHFLETGNEQHLLEMLDPHARVTVGDKELIGREDFSKWMLEMRIHHDEIKRLEIYNGRIHVDYEMDVEVGDKRFRTDFRITARKVNGRWILHSMEVK” the figure was 1.54; with “DEDEELIEKLLRLEEFAHKTGDERIMEELADPNTRLDINGRREHGMESFIRWLREARYTHFIWRDKIEIGEKMEIQGEVEGTYNGVRHRTEVILFVEKINGRWIIKEIEVR”, 1.76.

With “DDHHELLKRMMDIIKEQFLTGDWEEHRRMADPHVKVIINGVQLIGWEHIRRFEEEMRRQWRIHHVEDKDERYFEGRAHVHSEIDGEFDGKREIHHSVIHLHVVNGRLKRLELRFE”, the protease stability score worked out at 1.28. The figure for “DEEDHLMKHASEMFLHVMKTGDEDTLRRLVDPHVRLDWNGRKWHGRETVTRIIVENIHELGIDHIHLNHFEIYNGQADTNIEVRYNGKREEYHIHMHKVNGRWTVKSIHVTEE” is 1.5; for “SDIEDESEKFVRMFLHSYETGDWKSLREMFDPNARTIIGDKHTHGRELAVELWEDLFKRLGIKHIEVTHVHIRVINGRIDVRIEVHLNQGEFRYHIIIIVHVTKFNGVWLLTEFRIEEK” it is 1.27. Sequence “DEEEEDAERLLRELITWLYTGDFESLEKLMDPTTKLIQGDKTFIGREYLSKLFHDWGHTNVRAKLEDIKVVNGQVHIYGRLHYGDKTSETHFIVRKVNGKWLIKIVEFR” displayed a protease stability score of 1.62. The figure for “DELIEEARRFHEKLVDNLETGNEEEFEREIDPNTRVDFNGVEIHGWKHFSKMFKEIRFHQVRLHDIRAVGNKVDSDEDVDGNYNGVRVRHRIHVVARKVNGRWLMESVIFR” is 1.24.

For the sequence “SEEEEILRHILERFANVLHTGDFDWLSKMADPHVRFDVNGREFHGREEVIQAVRDWRERLGIKHLHVKDIRLQGDKMHLNGRMEFDGVIEDTRIIHQVVDGRLRSIEIRTK”, the protease stability score was found to be 0.16.

Regarding “DEEEELARRASRKLIELMLTGDEDSLEEMLDPNVKVQIGDKELHGRIAIEIMSRQFKNVRIEVKRLSVQGNYVDLDVRVNINGVWVEQRIQIEKVDGRWTLKENTIV”, the protease stability score is 2.23.

“SETDELLRQLAEFHRETLETGDFHTLWHLLDPHVRLDYNGQKMHGREHFARFWLELLTELRIHFRVRDIRTQGNKAHNRGEIIIHYDGRLRIIDSEIEIIVVNGKVTEVRHTIN” displayed a protease stability score of 0.837.

The values above are taken from the NTF2 design screens of Basanta et al. (2020).
